Reference: paper PMC8139597

Target: GFP11(×7)-actin (actin fused to a seven-copy array of GFP11)
Assay: split reporter

FluoSTEP-AKAR (R-G1–10–FluoSTEP-AKAR; mRuby2-FHA1-PKAsub-GFP1–10)
fold brightness of the GFP channel versus GFP11(×1)-actin: > 5 fold

FluoSTEP-ICUE (mRuby2-Epac1(149 to 881)-GFP1–10)
fold brightness of the GFP channel versus GFP11(×1)-actin: 3.6 fold
